In publication PMC10308904, “The Cytomegalovirus M35 Protein Directly Binds to the Interferon-β Enhancer and Modulates Transcription of Ifnb1 and Other IRF3-Driven Genes”:

Tests used:
[1] = target: NStr-M35_S, short M35 (aa 2 to 452) with N-terminal Twin-Strep tag and TEV site (murine cytomegalovirus (MCMV)); test: SEC-MALS; 100 μg protein on Superdex 200 Increase 10/300 in 50 mM Tris pH 7.4, 10% glycerol, 250 mM NaCl, 1 mM DTT
[2] = target: T1, M35_S (murine cytomegalovirus (MCMV) strain …, UniProt D3XDM4 2-452); test: EMSA; Hill coefficient 2.775; conditions: protein: recombinant; tags: N-terminal Twin-Strep tag removed by TEV (GS remnant likely); chain copies: 2; label: 5'-biotin on both strands; 5' overhang 1 nt each end, 56 bp
T1 sequence: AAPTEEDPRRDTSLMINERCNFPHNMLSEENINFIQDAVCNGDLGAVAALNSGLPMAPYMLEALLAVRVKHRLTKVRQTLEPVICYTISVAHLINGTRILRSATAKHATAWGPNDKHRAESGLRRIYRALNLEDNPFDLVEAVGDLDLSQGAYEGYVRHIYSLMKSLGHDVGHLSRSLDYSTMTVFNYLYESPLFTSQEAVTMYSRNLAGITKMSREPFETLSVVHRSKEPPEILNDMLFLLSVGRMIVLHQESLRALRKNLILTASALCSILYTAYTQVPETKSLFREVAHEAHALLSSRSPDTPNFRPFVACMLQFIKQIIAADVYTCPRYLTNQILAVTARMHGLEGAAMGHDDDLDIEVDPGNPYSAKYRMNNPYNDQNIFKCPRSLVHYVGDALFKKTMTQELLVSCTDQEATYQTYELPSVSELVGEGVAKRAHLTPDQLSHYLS

[3] = target: T1, M35_S; test: EMSA; 0.1-10 uM M35_S; second complex at 10 uM; conditions: protein: recombinant; tags: N-terminal Twin-Strep tag removed by TEV (GS remnant likely); chain copies: 2; label: 5'-biotin on both strands; 5' overhang 1 nt each end, 56 bp
[4] = target: T1, M35_S; test: EMSA; conditions: protein: recombinant; tags: N-terminal Twin-Strep tag removed by TEV (GS remnant likely); chain copies: 2; label: 5'-biotin on both strands; 5' overhang 1 nt each end, 56 bp
[5] = target: T1, M35_S; test: EMSA; 1 uM M35_S; conditions: protein: recombinant; tags: N-terminal Twin-Strep tag removed by TEV (GS remnant likely); chain copies: 2; label: 5'-biotin on both strands; 5' overhang 1 nt each end, 56 bp

Q: “NStr-M35_S, short M35 (aa 2 to 452) with N-terminal Twin-Strep tag and TEV site (domain or fragment)” was tested. Which stoichiometry N [1] did it give?
A: 2

B1: Bio-mIFNb (murine IFN-b enhancer) (dsDNA)
DNA 1: AAAATGACAGAGGAAAACTGAAAGGGAGAACTGAAAGTGGGAAATTCCTCTGAGGCA
DNA 2: CTGCCTCAGAGGAATTTCCCACTTTCAGTTCTCCCTTTCAGTTTTCCTCTGTCATTT
Q: B1 was tested. Which Kd [2] did it give?
A: 2060 nM

B2: Bio-hIFNb (human IFN-b enhancer) (dsDNA)
DNA 1: TAAATGACATAGGAAAACTGAAAGGGAGAAGTGAAAGTGGGAAATTCCTCTGAATAG
DNA 2: ACTATTCAGAGGAATTTCCCACTTTCACTTCTCCCTTTCAGTTTTCCTATGTCATTT
Q: Does B2 bind [3]?
A: binds

B3: Bio-scrambled (ScrHIFNb) (dsDNA)
DNA 1: ATAAGAGAACTAAGCGGAATAAGTAAGAGATGATCGGATTAGTCGCTAAGAATGAGA
DNA 2: TTCTCATTCTTAGCGACTAATCCGATCATCTCTTACTTATTCCGCTTAGTTCTCTTA
Q: Does B3 bind [4]?
A: no binding

B4: Bio-hIFNb 15-38 (dsDNA)
DNA 1: ATATAAGACGGAATAAACTGAAAGGGAGAAGTGAAAGTGACATGCTACGGAATGAAT
DNA 2: AATTCATTCCGTAGCATGTCACTTTCACTTCTCCCTTTCAGTTTATTCCGTCTTATA
Q: Does B4 bind [5]?
A: binds

B5: Bio-hIFNb 1-38 (dsDNA)
DNA 1: TAAATGACATAGGAAAACTGAAAGGGAGAAGTGAAAGTGACATGCTACGGAATGAAT
DNA 2: AATTCATTCCGTAGCATGTCACTTTCACTTCTCCCTTTCAGTTTTCCTATGTCATTT
Q: Does B5 bind [5]?
A: binds
